Patent US20180280504A1, “GLYCAN-INTERACTING COMPOUNDS AND METHODS OF USE” (SIAMAB THERAPEUTICS, INC., priority 2014, published 2018)

Assay: E3-STn allograft model, second round study, average body weight
Description: 50 female Balb/cmice were inoculated with E3-STn cells to cause STn-expressing tumor formation when they were 5 weeks old. Mice were housed in individually ventilated microisolator cages, and maintained under pathogen-free conditions with irradiated feed and autoclaved water. […] Beginning on the first day of the study, body weight and tumor volumes were recorded twice weekly. 33 mice with mean tumor volume between 100 and 150 mm^3 were selected for randomization.
The average weight of mice in each treatment group was also determined on days 1, 5, 8, 12, 15,19, 22, 26, 29, 33, 36, 40, 43, 47 and 50 following the first administration of each test article (see the following Table). The percent gain or loss over initial weight values is listed in parentheses.

B1: 7G9: anti-STn mouse monoclonal, IgG2b κ, from mouse #4407; VH SEQ ID NO: 12, VL SEQ ID NO: 9 (antibody, V domains shown)
VH: QVQLKESGPGLVAPSQNLSITCTVSGFSLTSYGVNWVRQPPGKGLEWLGVIWGDGSTNYHSALISRLIISKENSKSQVFLKLNSLQTNDTATYYCTKGFVYWGQGTLVTVSA
VL: QIVLTQSPAIMSASPGEKVTMTCSASSSVSYMHWYQQKSGTSPKRWIFDTSKLASGVPARFSGSGSGTSYSLTISSMEAEDAATYYCQQWSSNLLTFGAGTKLELK
Average Weight (day 1 of study): 18.3 g | Average Weight (day 5 of study): 18.7 g | percent gain or loss over initial weight (day 5 of study): (2.4) % | Average Weight (day 8 of study): 19.4 g | percent gain or loss over initial weight (day 8 of study): (6.5) % | Average Weight (day 12 of study): 20.1 g | percent gain or loss over initial weight (day 12 of study): (10.1) % | Average Weight (day 15 of study): 20.4 g | percent gain or loss over initial weight (day 15 of study): (12.0) % | Average Weight (day 19 of study): 20.9 g | percent gain or loss over initial weight (day 19 of study): (14.3) % | Average Weight (day 22 of study): 20.8 g | percent gain or loss over initial weight (day 22 of study): (14.1) % | Average Weight (day 26 of study): 21.5 g | percent gain or loss over initial weight (day 26 of study): (17.8) % | Average Weight (day 29 of study): 22.1 g | percent gain or loss over initial weight (day 29 of study): (21.1) % | Average Weight (day 33 of study): 22.2 g | percent gain or loss over initial weight (day 33 of study): (21.4) % | Average Weight (day 36 of study): 22.1 g | percent gain or loss over initial weight (day 36 of study): (21.0) % | Average Weight (day 40 of study): 22.8 g | percent gain or loss over initial weight (day 40 of study): (25.0) % | Average Weight (day 43 of study): 22.9 g | percent gain or loss over initial weight (day 43 of study): (25.4) % | Average Weight (day 47 of study): 22.8 g | percent gain or loss over initial weight (day 47 of study): (25.0) % | Average Weight (day 50 of study): 23.8 g | percent gain or loss over initial weight (day 50 of study): (30.2) % | percent gain in weight as compared to vehicle control (second round study): higher percent gain in weight
